In experiment [1] the target is T1, GST-GCK WT (human, UniProt P35557 1-465).
T1 sequence (looked up): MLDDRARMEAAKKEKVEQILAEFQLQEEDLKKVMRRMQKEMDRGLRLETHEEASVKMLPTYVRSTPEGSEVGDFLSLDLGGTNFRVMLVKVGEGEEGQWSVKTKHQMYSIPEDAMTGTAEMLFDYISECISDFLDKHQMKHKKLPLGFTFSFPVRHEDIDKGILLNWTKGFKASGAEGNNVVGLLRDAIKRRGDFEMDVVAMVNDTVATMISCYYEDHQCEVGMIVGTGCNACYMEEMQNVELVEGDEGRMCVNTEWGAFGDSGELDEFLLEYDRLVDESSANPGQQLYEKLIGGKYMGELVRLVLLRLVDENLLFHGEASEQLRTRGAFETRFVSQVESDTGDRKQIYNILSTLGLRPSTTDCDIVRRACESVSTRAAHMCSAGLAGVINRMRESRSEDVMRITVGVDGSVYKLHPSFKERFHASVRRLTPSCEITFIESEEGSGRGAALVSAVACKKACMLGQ
The experiment can be described thus: pull-down.

Experiment [2] addresses T2, His-GCK WT (human, UniProt P35557 1-465).
T2 sequence (looked up): T1 sequence (looked up)
The experiment can be described thus: pull-down.

B1: His-CK2α (enzyme, human, UniProt P68400 1-391, looked up)
chain: MSGPVPSRARVYTDVNTHRPREYWDYESHVVEWGNQDDYQLVRKLGRGKYSEVFEAINITNNEKVVVKILKPVKKKKIKREIKILENLRGGPNIITLADIVKDPVSRTPALVFEHVNNTDFKQLYQTLTDYDIRFYMYEILKALDYCHSMGIMHRDVKPHNVMIDHEHRKLRLIDWGLAEFYHPGQEYNVRVASRYFKGPELLVDYQMYDYSLDMWSLGCMLASMIFRKEPFFHGHDNYDQLVRIAKVLGTEDLYDYIDKYNIELDPRFNDILGRHSRKRWERFVHSENQHLVSPEALDFLDKLLRYDHQSRLTAREAMEHPYFYTVVKDQARMGSSSMPGGSTPVSSANMMSGISSVPTPSPLGPLAGSPVIAAANPLGMPVPAAAGAQQ
On to B1, for which, in experiment [1], the binding result is recorded as “binds”.

B2: GST-CK2α WT phosphorylated by active His-ERK2 (enzyme, human, UniProt P68400 1-391, looked up)
chain: B1 chain
modifications: phosphothreonine at 360, phosphoserine at 362 (ERK-mediated)
For the molecule B2, the binding result in experiment [2] is “binds”.

Values taken from publication PMC12322040 (Nature Communications, 2025).
